Measurements published in IntAct's records for PubMed 19838187.

Columns and labels:
tnr6b_mouse Tnrc6b = tnr6b_mouse Tnrc6b (UniProt Q8BKI2)
tnr6c_human TNRC6C = tnr6c_human TNRC6C (UniProt Q9HCJ0)
tnr6b_human TNRC6B = tnr6b_human TNRC6B (UniProt Q9UPQ9)

Measured: effect of a mutation on the interaction

Protein argonaute-2 (Homo sapiens), Q9UKV8 F470V;F505V, sequence (Q9UKV8 whole entry F470V/F505V): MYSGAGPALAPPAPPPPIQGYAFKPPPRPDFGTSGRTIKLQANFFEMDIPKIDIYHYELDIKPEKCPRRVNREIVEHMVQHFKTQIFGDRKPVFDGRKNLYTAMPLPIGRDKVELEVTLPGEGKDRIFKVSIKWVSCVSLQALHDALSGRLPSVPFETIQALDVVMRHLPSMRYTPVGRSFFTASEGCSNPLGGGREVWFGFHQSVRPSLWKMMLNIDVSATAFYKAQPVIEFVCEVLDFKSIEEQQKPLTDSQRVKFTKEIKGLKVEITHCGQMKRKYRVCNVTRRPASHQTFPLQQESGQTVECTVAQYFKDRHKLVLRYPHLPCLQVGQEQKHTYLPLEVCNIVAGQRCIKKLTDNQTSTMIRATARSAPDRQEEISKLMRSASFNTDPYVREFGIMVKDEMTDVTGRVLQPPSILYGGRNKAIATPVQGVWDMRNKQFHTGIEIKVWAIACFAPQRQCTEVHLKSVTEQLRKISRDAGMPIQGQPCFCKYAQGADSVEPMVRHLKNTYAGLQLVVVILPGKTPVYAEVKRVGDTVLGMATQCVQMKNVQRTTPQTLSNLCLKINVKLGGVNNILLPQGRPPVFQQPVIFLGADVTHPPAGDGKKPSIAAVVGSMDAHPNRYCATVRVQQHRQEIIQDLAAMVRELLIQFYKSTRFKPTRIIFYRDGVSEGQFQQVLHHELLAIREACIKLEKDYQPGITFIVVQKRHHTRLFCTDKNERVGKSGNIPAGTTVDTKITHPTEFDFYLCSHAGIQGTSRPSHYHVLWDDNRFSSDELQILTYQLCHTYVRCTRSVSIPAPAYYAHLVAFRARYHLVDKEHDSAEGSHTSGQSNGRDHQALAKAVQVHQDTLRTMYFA
tnr6b_mouse Tnrc6b, sequence (Q8BKI2 whole entry): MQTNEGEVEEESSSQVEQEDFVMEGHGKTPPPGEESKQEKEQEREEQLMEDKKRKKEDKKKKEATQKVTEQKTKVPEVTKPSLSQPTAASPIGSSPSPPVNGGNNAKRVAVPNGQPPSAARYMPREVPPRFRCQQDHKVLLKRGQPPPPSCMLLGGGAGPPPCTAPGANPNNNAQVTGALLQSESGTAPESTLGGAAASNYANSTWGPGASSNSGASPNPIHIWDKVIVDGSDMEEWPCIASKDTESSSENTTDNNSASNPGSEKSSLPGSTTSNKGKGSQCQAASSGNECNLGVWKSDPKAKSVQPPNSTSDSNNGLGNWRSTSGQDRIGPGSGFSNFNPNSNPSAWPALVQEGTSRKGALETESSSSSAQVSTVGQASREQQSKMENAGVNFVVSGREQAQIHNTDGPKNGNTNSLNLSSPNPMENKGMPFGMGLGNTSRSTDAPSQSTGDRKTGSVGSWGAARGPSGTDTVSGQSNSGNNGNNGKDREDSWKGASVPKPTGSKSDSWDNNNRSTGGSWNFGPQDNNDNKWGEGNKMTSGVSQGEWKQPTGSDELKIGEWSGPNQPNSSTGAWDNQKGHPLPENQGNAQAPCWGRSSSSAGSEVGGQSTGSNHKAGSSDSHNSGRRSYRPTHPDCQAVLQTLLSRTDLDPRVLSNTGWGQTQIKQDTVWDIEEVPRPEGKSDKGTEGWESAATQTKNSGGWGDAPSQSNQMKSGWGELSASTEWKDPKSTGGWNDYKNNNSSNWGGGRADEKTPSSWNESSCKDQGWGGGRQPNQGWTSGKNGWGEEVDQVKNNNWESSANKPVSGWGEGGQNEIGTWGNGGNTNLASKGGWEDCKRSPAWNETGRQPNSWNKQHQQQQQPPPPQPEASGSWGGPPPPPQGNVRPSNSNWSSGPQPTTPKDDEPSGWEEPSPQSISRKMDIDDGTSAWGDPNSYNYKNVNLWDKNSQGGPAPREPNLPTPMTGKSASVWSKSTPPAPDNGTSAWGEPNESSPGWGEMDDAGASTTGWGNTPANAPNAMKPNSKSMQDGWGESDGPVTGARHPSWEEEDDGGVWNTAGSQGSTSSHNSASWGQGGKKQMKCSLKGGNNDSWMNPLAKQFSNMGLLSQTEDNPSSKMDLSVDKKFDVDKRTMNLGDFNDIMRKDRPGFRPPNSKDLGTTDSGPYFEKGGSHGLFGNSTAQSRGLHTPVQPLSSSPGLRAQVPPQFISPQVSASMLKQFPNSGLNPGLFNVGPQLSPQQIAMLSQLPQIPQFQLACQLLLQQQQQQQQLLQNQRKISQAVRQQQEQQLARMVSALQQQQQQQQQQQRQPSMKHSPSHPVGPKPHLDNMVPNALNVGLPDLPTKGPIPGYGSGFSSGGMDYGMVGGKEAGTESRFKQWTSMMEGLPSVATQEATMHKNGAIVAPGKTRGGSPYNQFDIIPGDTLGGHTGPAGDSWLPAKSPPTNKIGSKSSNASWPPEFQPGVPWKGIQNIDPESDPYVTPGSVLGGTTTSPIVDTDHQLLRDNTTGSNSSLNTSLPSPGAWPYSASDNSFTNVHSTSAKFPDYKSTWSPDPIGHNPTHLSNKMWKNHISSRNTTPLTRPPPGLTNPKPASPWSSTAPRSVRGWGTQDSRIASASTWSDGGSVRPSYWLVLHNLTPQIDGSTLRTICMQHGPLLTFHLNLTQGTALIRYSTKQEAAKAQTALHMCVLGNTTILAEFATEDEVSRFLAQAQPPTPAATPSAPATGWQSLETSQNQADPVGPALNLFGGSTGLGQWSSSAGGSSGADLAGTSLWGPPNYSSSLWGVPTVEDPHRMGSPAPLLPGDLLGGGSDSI
tnr6c_human TNRC6C, sequence (Q9HCJ0 whole entry): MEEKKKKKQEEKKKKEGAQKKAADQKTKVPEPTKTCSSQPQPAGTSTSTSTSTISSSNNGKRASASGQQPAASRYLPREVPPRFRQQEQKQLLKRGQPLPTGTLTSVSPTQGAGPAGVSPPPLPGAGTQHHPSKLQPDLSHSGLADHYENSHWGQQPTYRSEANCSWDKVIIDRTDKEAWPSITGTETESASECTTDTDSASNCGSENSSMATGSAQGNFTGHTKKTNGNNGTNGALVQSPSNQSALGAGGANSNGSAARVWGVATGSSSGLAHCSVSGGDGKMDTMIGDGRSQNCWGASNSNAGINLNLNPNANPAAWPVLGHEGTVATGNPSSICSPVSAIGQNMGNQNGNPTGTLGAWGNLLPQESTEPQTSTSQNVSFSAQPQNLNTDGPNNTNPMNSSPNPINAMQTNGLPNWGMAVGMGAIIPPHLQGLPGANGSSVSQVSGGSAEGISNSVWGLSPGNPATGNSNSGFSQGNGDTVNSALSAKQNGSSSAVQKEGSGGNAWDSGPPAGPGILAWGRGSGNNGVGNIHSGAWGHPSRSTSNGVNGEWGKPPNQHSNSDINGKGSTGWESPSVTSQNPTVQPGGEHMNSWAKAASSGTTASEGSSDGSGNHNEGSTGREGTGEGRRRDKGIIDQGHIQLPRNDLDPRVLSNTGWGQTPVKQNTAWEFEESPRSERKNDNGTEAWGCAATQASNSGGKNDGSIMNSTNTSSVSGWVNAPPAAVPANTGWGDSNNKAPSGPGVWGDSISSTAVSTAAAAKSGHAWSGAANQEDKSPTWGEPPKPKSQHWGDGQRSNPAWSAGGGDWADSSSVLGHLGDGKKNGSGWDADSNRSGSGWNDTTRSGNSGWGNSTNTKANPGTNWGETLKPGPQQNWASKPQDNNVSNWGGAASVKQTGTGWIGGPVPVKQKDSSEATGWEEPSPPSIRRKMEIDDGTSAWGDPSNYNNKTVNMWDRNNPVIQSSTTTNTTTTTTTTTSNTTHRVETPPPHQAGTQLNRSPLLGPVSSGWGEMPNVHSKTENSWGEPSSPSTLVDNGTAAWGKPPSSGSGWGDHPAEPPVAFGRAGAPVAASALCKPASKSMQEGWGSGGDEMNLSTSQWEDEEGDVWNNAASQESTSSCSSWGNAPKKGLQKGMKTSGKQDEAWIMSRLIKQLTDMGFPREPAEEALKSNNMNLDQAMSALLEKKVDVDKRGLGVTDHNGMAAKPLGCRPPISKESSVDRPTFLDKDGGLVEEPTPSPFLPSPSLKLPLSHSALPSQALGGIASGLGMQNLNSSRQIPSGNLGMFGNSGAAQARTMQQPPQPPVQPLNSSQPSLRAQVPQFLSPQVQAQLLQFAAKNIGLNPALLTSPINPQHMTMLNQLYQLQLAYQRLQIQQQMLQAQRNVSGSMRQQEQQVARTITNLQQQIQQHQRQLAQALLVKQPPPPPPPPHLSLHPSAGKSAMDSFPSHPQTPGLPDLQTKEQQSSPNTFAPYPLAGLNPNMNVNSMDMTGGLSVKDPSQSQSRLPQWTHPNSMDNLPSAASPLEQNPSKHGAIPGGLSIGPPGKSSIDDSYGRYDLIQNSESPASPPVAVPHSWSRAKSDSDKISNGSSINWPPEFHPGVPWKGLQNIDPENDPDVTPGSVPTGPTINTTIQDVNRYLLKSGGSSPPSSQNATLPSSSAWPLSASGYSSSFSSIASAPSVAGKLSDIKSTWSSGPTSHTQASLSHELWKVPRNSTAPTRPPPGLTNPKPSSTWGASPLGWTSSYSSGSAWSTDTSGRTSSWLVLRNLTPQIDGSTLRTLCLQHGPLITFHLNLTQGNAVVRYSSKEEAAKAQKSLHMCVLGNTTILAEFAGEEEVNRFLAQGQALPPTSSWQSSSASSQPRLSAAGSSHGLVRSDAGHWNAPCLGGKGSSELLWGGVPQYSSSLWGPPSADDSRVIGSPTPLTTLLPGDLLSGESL

Protein argonaute-2 (Homo sapiens), Q9UKV8 F470V;F505V
disrupting interaction: all assays above
